Article PMC9979147

Molecular target: Pertuzumab, 2 weeks stressed in PBS, pH 7.4
Test: SPR; Biacore T200; pertuzumab immobilized on a Series S Protein A sensor chip (145 RU); single-cycle kinetics, five sequential injections of HER2 from 1.22 to 100 nM; phosphate-buffered saline with 0.05% Tween 20; flow 30 μL/min; 1:1 binding model

Chain of Pertuzumab, 2 weeks stressed in PBS, pH 7.4 (heavy, as listed by the source, chain 1 of 2): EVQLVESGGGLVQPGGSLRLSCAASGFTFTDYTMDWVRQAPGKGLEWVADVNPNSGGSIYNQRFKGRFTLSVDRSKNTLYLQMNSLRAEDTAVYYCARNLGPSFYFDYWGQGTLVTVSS
Chain of Pertuzumab, 2 weeks stressed in PBS, pH 7.4 (light, as listed by the source, chain 2 of 2): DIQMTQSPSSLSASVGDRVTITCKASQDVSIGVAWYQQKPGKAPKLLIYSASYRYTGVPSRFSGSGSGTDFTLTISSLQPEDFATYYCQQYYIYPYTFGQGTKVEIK

“Human HER2/ErbB2 protein, extracellular domain Thr23-Thr652, His Tag (from UniProt P04626 23-652) (domain or fragment)” was tested, and the Kd was 2.3 nM.
